The values that follow come from patent publication US20250250357A1 (NANJING ZAIMING PHARMACEUTICAL, published 2025).

The chains are these.
T1: human MSLN-R1-his protein (human, UniProt Q13421 296-390)
T1 construct: Region 1 of human mesothelin, made in HEK293E cells, His-tagged; also called human MSLN-R1 protein; hMSLN-R1-his; not shown: His tag
T1 chain: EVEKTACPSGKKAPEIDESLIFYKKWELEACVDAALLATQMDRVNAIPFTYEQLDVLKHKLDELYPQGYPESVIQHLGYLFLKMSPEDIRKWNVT

B1: S009-F8-36.12 (antibody, human IgG1, kappa, V domains shown)
VH: EVQLQQSGPELVKPGASVKISCKASGYTFTDYYMNWVKQSHGKSLEWIGDINPNNGGTSYNQKFKGKATLTVDKSSSTAYMELRSLTSEDSAVYYCASWGYGSSSRGYFDYWGQGTTLTVSS
VL: QIVLSQSPAILSASPGEKVTMTCRASSSVSYMHWYQQKPGSSPKPWIYATSNLASGVPARFSGSGSGTSYSLTISRVEAEDAATYYCQQWSSNPWTFGGGTKLEIKR
B2: S009-F8-33.12 (antibody, human IgG1, kappa, V domains shown)
VH: EVQLQQSGAELVKPGASVKLSCTASAFNIKDYYMHWVKQRTEQGLEWIGRIDPEDGETKYAPKFQGKATITADTSSNTAYLQLSSLTSEDTAVYYCASGSGTGAMDYWGQGTSVTVSS
VL: DIVMTQSQKFMSTSVGDRVSITCKASQNVRTAVGWYQQKPGQSPKALIYLASNRHTGVPDRFTGSGSGTDFTLTISNVQSEDLADYFCLQHWNSPYTFGGGTKLVIKR
B3: S009-F8-31.22 (antibody, human IgG1, kappa, V domains shown)
VH: EVQLVESGGDLVKPGGSLKLSCAASGFTFSTYGMSWVRQTPDKRLEWVATISSGGSYTYYPDSLKGRFTISRDNAKNTLYLQMSSLKSEDTAMYYCARHEGYYYGKDYWGQGTTLTVSS
VL: DIVLTQSPATLSVTPGDSVSLSCRASHSISNNLHWYQQKSHESPRLLIKYASQSISGIPSKFSGSGSGTDFTLSINSVETEDFGMYFCQQTNSWPLTFGAGTKLELKR
B4: S009-F8-32.3 (antibody, human IgG1, kappa, V domains shown)
VH: QVQLKESGPGLVAPSQSLSITCTVSGFSLSSYAISWVRQPPGKGLEWLGVIWTGGGTNYNSALKSRLSISKDNSKSQVFLKMNSLQTDDTARFYCARNNYGRLDYAMDYWGQGTSVTVSS
VL: DVVMTQTPLSLPVSLGDQASISCRSSQSLVHGNGNTYLHWYLQKPGQSPKLLIYKVSNRFSGVPDRFSGSGSGTDFTLKISRVETEDLGVYFCSQSTHVPFTFGSGTKLEIKR
B5: S009-F8-29.1 (antibody, human IgG1, kappa, V domains shown)
VH: QVQLQQSGAELARPGASVKMSCKASGYTFISYTMHWVKQRPGQGLEWIGYINPSSGYTKYNQKFKDKATLTADKSSSTAYMQLNSLTSEDSAVYYCARYYSNPDYYAMDYWGQGTSVTVSS
VL: QIVLTQSPAIMSASPGEKVTITCSASSSVSYMHWFQQKPGTSPKLWIYSTSNLASGVPARFSGSGSGTSYSLTISRMEAEDAATYYCQQRSSYPLTFGGGTKLELKR

T2 sequence (Q13421 495-606): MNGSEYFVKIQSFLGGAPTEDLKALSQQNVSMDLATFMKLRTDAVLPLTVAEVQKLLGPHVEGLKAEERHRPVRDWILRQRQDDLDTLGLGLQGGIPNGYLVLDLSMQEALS
T3 sequence (Q13421 other isoform, or with tags, fused parts or gaps): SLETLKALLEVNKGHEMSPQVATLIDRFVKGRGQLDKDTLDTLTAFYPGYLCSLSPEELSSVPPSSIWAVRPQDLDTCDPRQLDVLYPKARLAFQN

One test concerns the target T2, human MSLN-R3-his protein (human, UniProt Q13421 487-598).
T2 construct: Region 3 of human mesothelin, made in HEK293E cells, His-tagged; also called human MSLN-R3 protein; hMSLN-R3-his; not shown: His tag
In words: ELISA on coated MSLN-R3; antibody 0.1 nM.
B1 came in with an OD450 of 0.04 OD450.
As for B2, the OD450 came to 0.03 OD450.
On the same count and under the same terms, for B3 the value was 0.04 OD450; for B4, 0.04 OD450; for B5, 0.04 OD450.

The next test addresses T1, human MSLN-R1-his protein. As to the kind of experiment: ELISA on coated MSLN-R1; antibody 0.1 nM. (ELISA stands for enzyme-linked immunosorbent assay.)
Description: (§1) The plate was sealed with a plastic film and incubated at 4° C. overnight. The next day, the plate was washed twice with PBST, and a blocking buffer [PBS+2% (w/w) BSA] was added for blocking at room temperature for 2 h. The blocking buffer was discarded, and a chimeric antibody or negative control antibody serially diluted from 100 nM was added at 50 μL/well. After incubation at 37° C. for 2 h, the plate was washed 3 times with PBST. […] After incubation at 37° C. for 2 h, the plate was washed 5 times with PBST. A TMB substrate was added at 50 μL/well for incubation at room temperature for 5-10 min, and then a stop solution (1.0 N HCl) was added at 50 μL/well.
For the molecule B1, the OD450 worked out at 0.04 OD450.
As for B2, the OD450 amounted to 1.6 OD450.
On to B3, for which the OD450 stood at 1.95 OD450.
B4 gave an OD450 of 1.64 OD450.
Still for that read-out and setting: to B5 belongs 0.04 OD450.

The next test deals with T1, human MSLN-R1-his protein. As to the kind of experiment: ELISA on coated MSLN-R1; antibody 0.0001 nM.
Description: as §1
As for B1, the OD450 came to 0.04 OD450.
The same measure, in the same setting: for B2 the value was 0.05 OD450; for B3, 0.08 OD450.
Take B4: the OD450 is 0.06 OD450.
Same read-out and setting: for B5 the value was 0.04 OD450.

The next test addresses T3, human MSLN-R2-his protein (human, UniProt Q13421 391-486).
T3 construct: Region 2 of human mesothelin, made in HEK293E cells, His-tagged; also called human MSLN-R2 protein; hMSLN-R2-his; not shown: His tag
As to the kind of experiment: ELISA on coated MSLN-R2; antibody 0.001 nM.
B1 had an OD450 of 0.04 OD450.
B2: the OD450 was 0.04 OD450.
In turn, B3 showed an OD450 of 0.04 OD450.
On to B4, for which the OD450 was found to be 0.04 OD450.
For B5, the OD450 was found to be 0.04 OD450.

Another test deals with T2, human MSLN-R3-his protein. As to the kind of experiment: ELISA on coated MSLN-R3; antibody 0.001 nM.
Description: as §1
With B1, the OD450 was found to be 0.04 OD450.
Still for that read-out and setting: for B2 the value was 0.04 OD450; for B3, 0.04 OD450.
Turning to B4, the OD450 was 0.04 OD450.
With B5, the OD450 was 0.15 OD450.

A further test has as its target T3, human MSLN-R2-his protein. As to the kind of experiment: ELISA on coated MSLN-R2; antibody 1 nM.
Description: as §1
For B1, the OD450 was determined as 0.04 OD450.
Take B2: the OD450 worked out at 0.04 OD450.
Consider B3, for which the OD450 was determined as 0.04 OD450.
As for B4, the OD450 is 0.04 OD450.
On the same count and under the same terms, to B5 belongs 0.04 OD450.

The target of the next test is T1, human MSLN-R1-his protein. In words: ELISA on coated MSLN-R1; antibody 0.01 nM.
Description: as §1
For B1, the OD450 came to 0.04 OD450.
Molecule B2 displayed an OD450 of 0.43 OD450.
On to B3, for which the OD450 came out at 0.8 OD450.
Molecule B4 had an OD450 of 0.42 OD450.
In the case of B5, the OD450 is 0.04 OD450.

The target of the next test is T1, human MSLN-R1-his protein. In words: ELISA on coated MSLN-R1; no antibody (blank).
Description: as §1
B1: the OD450 came to 0.03 OD450.
The molecule B2 came in with an OD450 of 0.04 OD450.
On to B3, for which the OD450 came to 0.05 OD450.
B4: the OD450 was 0.04 OD450.
As for B5, the OD450 was found to be 0.04 OD450.

Another test deals with T2, human MSLN-R3-his protein. In words: ELISA on coated MSLN-R3; antibody 100 nM.
Description: as §1
Molecule B1 returned an OD450 of 1.19 OD450.
The molecule B2 returned an OD450 of 0.06 OD450.
Still for that read-out and setting: to B3 belongs 0.13 OD450.
For the molecule B4, the OD450 was 0.07 OD450.
For B5, the OD450 was 0.1 OD450.

For a further test, the target named is T2, human MSLN-R3-his protein. In words: ELISA on coated MSLN-R3; antibody 10 nM.
Regarding B1, the OD450 stood at 0.14 OD450.
On the same count and under the same terms, for B2 the value was 0.05 OD450; for B3, 0.07 OD450; for B4, 0.04 OD450.
Take B5: the OD450 worked out at 0.06 OD450.

Another test concerns the target T3, human MSLN-R2-his protein. As to the kind of experiment: ELISA on coated MSLN-R2; antibody 0.1 nM.
Description: as §1
Turning to B1, the OD450 stood at 0.03 OD450.
In the case of B2, the OD450 was 0.04 OD450.
Consider B3, for which the OD450 was determined as 0.05 OD450.
Same read-out and setting: to B4 belongs 0.04 OD450.
Molecule B5 displayed an OD450 of 0.04 OD450.

A further test addresses T3, human MSLN-R2-his protein. As to the kind of experiment: ELISA on coated MSLN-R2; antibody 0.01 nM.
Description: as §1
B1 yielded an OD450 of 0.04 OD450.
In turn, B2 came in with an OD450 of 0.04 OD450.
For B3, the OD450 was determined as 0.04 OD450.
Consider B4, for which the OD450 worked out at 0.04 OD450.
In turn, B5 had an OD450 of 0.04 OD450.

Another test concerns the target T3, human MSLN-R2-his protein. In words: ELISA on coated MSLN-R2; antibody 100 nM.
Description: as §1
Molecule B1 came in with an OD450 of 0.05 OD450.
B2 gave an OD450 of 0.05 OD450.
In turn, B3 returned an OD450 of 0.08 OD450.
B4: the OD450 is 0.07 OD450.
Consider B5, for which the OD450 came to 0.06 OD450.

The next test concerns the target T1, human MSLN-R1-his protein. As to the kind of experiment: ELISA on coated MSLN-R1; antibody 0.001 nM.
Description: as §1
The molecule B1 had an OD450 of 0.04 OD450.
In the case of B2, the OD450 is 0.11 OD450.
As to B3, the OD450 came out at 0.19 OD450.
Molecule B4 returned an OD450 of 0.11 OD450.
B5 came in with an OD450 of 0.04 OD450.

The next test addresses T2, human MSLN-R3-his protein. As to the kind of experiment: ELISA on coated MSLN-R3; antibody 1 nM.
Description: as §1
As for B1, the OD450 is 0.05 OD450.
Regarding B2, the OD450 worked out at 0.04 OD450.
Consider B3, for which the OD450 came out at 0.05 OD450.
B4 came in with an OD450 of 0.04 OD450.
Same read-out and setting: for B5 the value was 0.06 OD450.

The target in another test is T3, human MSLN-R2-his protein. In words: ELISA on coated MSLN-R2; no antibody (blank).
Description: as §1
B1: the OD450 was found to be 0.04 OD450.
In turn, B2 registered an OD450 of 0.04 OD450.
The molecule B3 registered an OD450 of 0.05 OD450.
Molecule B4 returned an OD450 of 0.04 OD450.
For the molecule B5, the OD450 worked out at 0.04 OD450.

The next test concerns the target T1, human MSLN-R1-his protein. As to the kind of experiment: ELISA on coated MSLN-R1; antibody 100 nM.
Description: as §1
Molecule B1 came in with an OD450 of 0.05 OD450.
As to B2, the OD450 amounted to 2.64 OD450.
B3: the OD450 is 2.12 OD450.
Molecule B4 came in with an OD450 of 2.81 OD450.
In turn, B5 gave an OD450 of 0.05 OD450.

The target of a further test is T3, human MSLN-R2-his protein. As to the kind of experiment: ELISA on coated MSLN-R2; antibody 10 nM.
Description: as §1
Turning to B1, the OD450 was 0.04 OD450.
In the case of B2, the OD450 came out at 0.04 OD450.
B3 returned an OD450 of 0.05 OD450.
On the same count and under the same terms, to B4 belongs 0.05 OD450; to B5, 0.04 OD450.

The target of another test is T2, human MSLN-R3-his protein. As to the kind of experiment: ELISA on coated MSLN-R3; antibody 0.0001 nM.
Description: as §1
The molecule B1 yielded an OD450 of 0.04 OD450.
In the case of B2, the OD450 was found to be 0.04 OD450.
Same read-out and setting: for B3 the value was 0.04 OD450.
In turn, B4 displayed an OD450 of 0.04 OD450.
On the same count and under the same terms, to B5 belongs 0.06 OD450.

A further test has as its target T2, human MSLN-R3-his protein. In words: ELISA on coated MSLN-R3; no antibody (blank).
Molecule B1 showed an OD450 of 0.04 OD450.
As to B2, the OD450 came out at 0.03 OD450.
On to B3, for which the OD450 was 0.05 OD450.
Still for that read-out and setting: for B4 the value was 0.04 OD450; for B5, 0.04 OD450.

The next test addresses T3, human MSLN-R2-his protein. In words: ELISA on coated MSLN-R2; antibody 0.0001 nM.
Description: as §1
In turn, B1 registered an OD450 of 0.04 OD450.
B2: the OD450 came out at 0.04 OD450.
The same measure, in the same setting: for B3 the value was 0.05 OD450.
Same read-out and setting: for B4 the value was 0.04 OD450; for B5, 0.05 OD450.

A further test deals with T1, human MSLN-R1-his protein. In words: ELISA on coated MSLN-R1; antibody 10 nM.
Description: as §1
Molecule B1 gave an OD450 of 0.04 OD450.
The molecule B2 registered an OD450 of 2.66 OD450.
As to B3, the OD450 worked out at 2.17 OD450.
B4 showed an OD450 of 2.79 OD450.
B5: the OD450 is 0.04 OD450.

Another test concerns the target T1, human MSLN-R1-his protein. In words: ELISA on coated MSLN-R1; antibody 1 nM.
Description: as §1
As for B1, the OD450 was 0.04 OD450.
On the same count and under the same terms, to B2 belongs 2.45 OD450; to B3, 2.05 OD450.
The molecule B4 had an OD450 of 2.6 OD450.
The same measure, in the same setting: to B5 belongs 0.04 OD450.

The next test concerns the target T2, human MSLN-R3-his protein. As to the kind of experiment: ELISA on coated MSLN-R3; antibody 0.01 nM.
On to B1, for which the OD450 came out at 0.04 OD450.
B2 yielded an OD450 of 0.04 OD450.
Consider B3, for which the OD450 was 0.04 OD450.
Consider B4, for which the OD450 came out at 0.04 OD450.
B5 showed an OD450 of 0.04 OD450.
